Entries after “also recorded” stand apart in the source; their conditions may differ.
What was measured:
TARS [1] = molecular target: T1, TARS (Homo sapiens, UniProt P26639); experiment: GTPase (GTP hydrolysis) assay; type: biochemical; parameters: His6 (N); made in house; host or cells: E. coli Rosetta 2 (DE3)pLysS, plasmid pET28a hctThrRS
T1 sequence (P26639 1-723): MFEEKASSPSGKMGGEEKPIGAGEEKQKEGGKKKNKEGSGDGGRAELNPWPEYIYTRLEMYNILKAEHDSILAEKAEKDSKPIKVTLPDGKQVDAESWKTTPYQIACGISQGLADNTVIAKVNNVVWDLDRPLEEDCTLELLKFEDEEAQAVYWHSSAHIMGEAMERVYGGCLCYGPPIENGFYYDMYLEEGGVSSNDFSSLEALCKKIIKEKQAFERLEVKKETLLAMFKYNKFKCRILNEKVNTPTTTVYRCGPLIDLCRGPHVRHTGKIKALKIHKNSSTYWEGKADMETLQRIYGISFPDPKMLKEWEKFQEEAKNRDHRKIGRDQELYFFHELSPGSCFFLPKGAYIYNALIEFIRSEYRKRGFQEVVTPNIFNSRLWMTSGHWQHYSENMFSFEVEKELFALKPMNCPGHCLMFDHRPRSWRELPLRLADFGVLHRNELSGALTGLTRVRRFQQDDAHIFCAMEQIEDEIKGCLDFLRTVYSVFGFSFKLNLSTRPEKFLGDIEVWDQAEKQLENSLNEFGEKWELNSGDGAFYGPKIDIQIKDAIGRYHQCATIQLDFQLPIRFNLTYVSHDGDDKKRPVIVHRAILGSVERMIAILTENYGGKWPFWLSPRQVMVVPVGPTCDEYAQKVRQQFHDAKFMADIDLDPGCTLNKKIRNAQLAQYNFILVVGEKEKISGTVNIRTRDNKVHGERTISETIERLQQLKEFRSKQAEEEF

HUVECs = experiment: Quantitative RT-PCR of TARS mRNA; type: cell-based, human; conditions: HUVECs exposed to 50 ng/ml
Protocol: Total RNA was extracted from cells using the RNeasy column protocol and cDNA was generated using an Omniscript reverse transcriptase assay according to the manufacturer's instructions (Qiagen, Frederick, Md.). Primers and probes for TARS and β2-microglobulin were Assays-on-Demand (Applied Biosystems, [Life Technologies, Carlsbad, Calif.]). RT-qPCR was performed using an ABI prism 7700 Sequence Detection System (Applied Biosystems). The relative quantity of mRNA level was determined using the comparative CT (ΔΔCT) method using β2-microglobulin to normalize mRNA level (Cassavaugh, Hale et al. 2011).

TARS [2] = molecular target: T1, TARS; experiment: Ap4A formation assay (TLC, [α-32P]-ATP); type: biochemical; parameters: His6 (N); made in house; host or cells: E. coli Rosetta 2 (DE3)pLysS, plasmid pET28a hctThrRS; conditions: 5 μM enzyme, 2 mM threonine, 2 mM ATP
TARS [3] = molecular target: T1, TARS; experiment: Ap4G formation assay (TLC, [α-32P]-GTP); type: biochemical; parameters: His6 (N); made in house; host or cells: E. coli Rosetta 2 (DE3)pLysS, plasmid pET28a hctThrRS; conditions: 2 mM ATP, 2 mM threonine, 2 mM GTP
[4] = test system: chorioallantoic membrane (CAM) of chicken embryos; experiment: Chick chorioallantoic membrane (CAM) assay; type: in vivo; conditions: for CAM vessel formation / vascularity, effect of applied synthetase: purified protein applied daily to gelfoam sponge, 72 h
Protocol: Chick Chorioallantoic Membrane Assay—
Fertilized chicken eggs (Sunrise Farms, Catskill, N.Y.) day 1-2 post-laying were incubated in a humidified incubator at 37° C. for 72 h. Cleaned eggs were cracked and plated in a sterile 10 cm^2 tissue culture-treated dish and incubated at 37° C. for another 7 days. On developmental day 10, 1 mm^3 sterile gelatin sponge pieces (Surgifoam®; Johnson & Johnson Wound Management, Somerville, N.J.) were placed within the outer one-third of the membrane between large vessels. […] All compounds were applied in 10 μl to the CAM every 24 h for 72 h. Images were taken using a Leica MZ6 stereomicroscope every 24 h. Compounds were scored according to a modified version of Intensity Scoring as previously described (Ribatti, Nico et al. 2006). Briefly, each experimental condition was given a blinded score from 0-5 based on the change in the extent of vessel convergence and formation in proximity to the sponge from day 0 to day 3. Total score is averaged individual experimental condition scores from at least 15 replicates.
Fertilized chicken embryos were cultured ex-ova and, starting at developmental day 10, agents were applied daily to gelfoam sponges on the CAM. Images were recorded daily over 72 h and scored blindly according to a modified version Intensity Scoring as previously described (Ribatti, Nico et al. 2006). Additional details regarding methods are provided in the Methods and Materials section of Example 1.

tRNAThr = experiment: Steady state aminoacylation assay; type: biochemical, E. coli or human; conditions: purified recombinant protein
Protocol: Steady State Aminoacylation Assay—
The aminoacylation activities of the TARS constructs were determined using modifications to established procedures (Francklyn et al 2008). Briefly, reaction mixtures consisted of 20 mM Tris-HCl pH 8.0, 100 mM KCl, 10 mM MgCl2, 1 mM dithiothreitol, 2 mM ATP, 2.5 U pyrophosphatase (Roche), 80 μM threonine, 20 μM [14C]-threonine, and 5 μM of E. coli or human tRNAThr. Reactions were initiated with the addition of 0.25-0.75 μM TARS and run at 37° C. Aliquots were taken at varying time points and spotted onto Whatmann 3MM paper filters pre-soaked in 5% trichloroacetic acid (TCA). Upon completion, the filters were washed 3 times in excess TCA, once in 95% ethanol, and dried under a heating lamp. The formation of Thr-tRNAThr was detected by scintillation counter and the activity determined by linear regression of threonyl-tRNAThr formed per active site per unit time.

[5] = substrate added to GTPase reaction

Molecule: Nc1ncnc2c1ncn2[C@@H]1O[C@H](COP(=O)(O)OP(=O)(O)OP(=O)(O)O)[C@@H](O)[C@H]1O [ATP]
- decrease in TARS GTPase activity (TARS [1]; [5]): 77%

Molecule: C[C@@H](O)[C@H](N)C(=O)O [threonine]
- increase in TARS GTPase activity (TARS [1]; [5]): 26%

Molecule: TNF-α
- TARS mRNA level (HUVECs): neither VEGF nor TNF-α induced an increase; also recorded: do not induce TARS transcription

Molecule: VEGF
- TARS mRNA level (HUVECs): neither VEGF nor TNF-α induced an increase; also recorded: do not induce TARS transcription

B1: E. coli ThrRS: bacterial (E. coli) threonyl-tRNA synthetase (protein, UniProt P0A8M3 1-642, looked up)
Threonine--tRNA ligase: MPVITLPDGSQRHYDHAVSPMDVALDIGPGLAKACIAGRVNGELVDACDLIENDAQLSIITAKDEEGLEIIRHSCAHLLGHAIKQLWPHTKMAIGPVIDNGFYYDVDLDRTLTQEDVEALEKRMHELAEKNYDVIKKKVSWHEARETFANRGESYKVSILDENIAHDDKPGLYFHEEYVDMCRGPHVPNMRFCHHFKLMKTAGAYWRGDSNNKMLQRIYGTAWADKKALNAYLQRLEEAAKRDHRKIGKQLDLYHMQEEAPGMVFWHNDGWTIFRELEVFVRSKLKEYQYQEVKGPFMMDRVLWEKTGHWDNYKDAMFTTSSENREYCIKPMNCPGHVQIFNQGLKSYRDLPLRMAEFGSCHRNEPSGSLHGLMRVRGFTQDDAHIFCTEEQIRDEVNGCIRLVYDMYSTFGFEKIVVKLSTRPEKRIGSDEMWDRAEADLAVALEENNIPFEYQLGEGAFYGPKIEFTLYDCLDRAWQCGTVQLDFSLPSRLSASYVGEDNERKVPVMIHRAILGSMERFIGILTEEFAGFFPTWLAPVQVVIMNITDSQSEYVNELTQKLSNAGIRVKADLRNEKIGFKIREHTLRRVPYMLVCGDKEVESGKVAVRTRRGKDLGSMDVNEVIEKLQQEIRSRSLKQLEE
- Ap4A production rate (TARS [2]): 0.5612 Ap4A/active site/min
- Ap4G formation rate (TARS [3]): 0.5612 Ap4G/active site/min
- GTP hydrolysis rate (TARS [1]; 2 mM GTP): not

B2: L567V TARS: BC194-resistant (borrelidin-resistant) L567V mutant of human TARS (protein, listed as Homo sapiens)
chain: MFEEKASSPSGKMGGEEKPIGAGEEKQKEGGKKKNKEGSGDGGRAELNPWPEYIYTRLEMYNILKAEHDSILAEKAEKDSKPIKVTLPDGKQVDAESWKTTPYQIACGISQGLADNTVIAKVNNVVWDLDRPLEEDCTLELLKFEDEEAQAVYWHSSAHIMGEAMERVYGGCLCYGPPIENGFYYDMYLEEGGVSSNDFSSLEALCKKIIKEKQAFERLEVKKETLLAMFKYNKFKCRILNEKVNTPTTTVYRCGPLIDLCRGPHVRHTGKIKALKIHKNSSTYWEGKADMETLQRIYGISFPDPKMLKEWEKFQEEAKNRDHRKIGRDQELYFFHELSPGSCFFLPKGAYIYNALIEFIRSEYRKRGFQEVVTPNIFNSRLWMTSGHWQHYSENMFSFEVEKELFALKPMNCPGHCLMFDHRPRSWRELPLRLADFGVLHRNELSGALTGLTRVRRFQQDDAHIFCAMEQIEDEIKGCLDFLRTVYSVFGFSFKLNLSTRPEKFLGDIEVWDQAEKQLENSLNEFGEKWELNSGDGAFYGPKIDIQIKDAIGRYHQCATIQLDFQVPIRFNLTYVSHDGDDKKRPVIVHRAILGSVERMIAILTENYGGKWPFWLSPRQVMVVPVGPTCDEYAQKVRQQFHDAKFMADIDLDPGCTLNKKIRNAQLAQYNFILVVGEKEKISGTVNIRTRDNKVHGERTISETIERLQQLKEFRSKQAEEEF
- sensitivity of synthetase-induced CAM angiogenesis to BC194 ([4]; protein plus BC194 applied to CAM): not inhibited
- CAM vessel formation / vascularity, effect of applied synthetase [4]: stimulated vessel formation
- aminoacylation activity (tRNAThr): not compromised

B3: R442A TARS: aminoacylation-deficient human TARS mutant; essential catalytic arginine 442 exchanged for alanine (protein, listed as Homo sapiens)
chain: MFEEKASSPSGKMGGEEKPIGAGEEKQKEGGKKKNKEGSGDGGRAELNPWPEYIYTRLEMYNILKAEHDSILAEKAEKDSKPIKVTLPDGKQVDAESWKTTPYQIACGISQGLADNTVIAKVNNVVWDLDRPLEEDCTLELLKFEDEEAQAVYWHSSAHIMGEAMERVYGGCLCYGPPIENGFYYDMYLEEGGVSSNDFSSLEALCKKIIKEKQAFERLEVKKETLLAMFKYNKFKCRILNEKVNTPTTTVYRCGPLIDLCRGPHVRHTGKIKALKIHKNSSTYWEGKADMETLQRIYGISFPDPKMLKEWEKFQEEAKNRDHRKIGRDQELYFFHELSPGSCFFLPKGAYIYNALIEFIRSEYRKRGFQEVVTPNIFNSRLWMTSGHWQHYSENMFSFEVEKELFALKPMNCPGHCLMFDHRPRSWRELPLRLADFGVLHANELSGALTGLTRVRRFQQDDAHIFCAMEQIEDEIKGCLDFLRTVYSVFGFSFKLNLSTRPEKFLGDIEVWDQAEKQLENSLNEFGEKWELNSGDGAFYGPKIDIQIKDAIGRYHQCATIQLDFQLPIRFNLTYVSHDGDDKKRPVIVHRAILGSVERMIAILTENYGGKWPFWLSPRQVMVVPVGPTCDEYAQKVRQQFHDAKFMADIDLDPGCTLNKKIRNAQLAQYNFILVVGEKEKISGTVNIRTRDNKVHGERTISETIERLQQLKEFRSKQAEEEF
- CAM vessel formation / vascularity, effect of applied synthetase [4]: virtually indistinguishable from wild type
- aminoacylation activity (tRNAThr): essentially no aminoacylation activity; also recorded: virtually negligible aminoacylation function
- Ap4A production rate (TARS [2]): no appreciable activity; also recorded: blocked
- Ap4G formation rate (TARS [3]): not catalyzed; also recorded: blocked

Source: US10125358B2, “Methods and compounds for increasing threonyl-tRNA synthetase activity” (UNIVERSITY OF VERMONT AND STATE AGRICULTURAL COLLEGE, priority 2012, dated 2018)
